# Reference: US20140234868A1, “USE FOR GLYCOLIPOPROTEIN GINTONIN, ISOLATED AND IDENTIFIED FROM GINSENG, AS A NATURAL MEDICAL-PLANT DERIVED LIGAND” (KONKUK UNIVERSITY INDUSTRIAL COOPERATION CORP., priority 2011, published 2014)
# Residue numbers refer to the chain shown, from its start.
# B1: gintonin: ginseng-derived glycolipoprotein; structural protein of ginseng major latex-like protein (MLP151) and ribonuclease-like storage proteins; crude gintonin used in tests (protein)
# chain 1: MGLTGKLICQTGIKSDGDVFHELFGTRPHHVPNITPANIQGCDLHEGEFGKVGSVVIWNYSIDGNAMIAKEEIVAIDEEDKSVTFKVVEGHLFEEFKSIVFSVHVDTKGEDNLVTWSIDYEKLNESVKDPTSYLDFLLSVTRDIEAHHLPK
# chain 2: RSDYPWAMFALRLQWPAGFCEVNNACDTKSLLNTFTIHGLYPYNAKGTPALYCDGTAFDVNSVSDFLAEMHLAWPSHETNTEDIQFWEHEWKKHGRCSEALLKQTDYFRTALAFRKAFDIVGLLNQEGIYPNNDLYRPKMIKEAIKKHLNAVPEIDFTKNENSEYVLTDINVCVNQQATRFVDCPTDDATDDYRLKFVRLPSKMKFADPRTNSII
# Legend:
# Type in all cases: cell-based
# LPA3 receptor = molecular target: T1, LPA3 receptor (Homo sapiens, UniProt Q9UBY5); experiment: Intracellular cAMP level in LPA3-expressing B103 cells
# T1 construct: host or cells: B103 rat neuroblastoma cells
# T1 sequence (Q9UBY5 1-353): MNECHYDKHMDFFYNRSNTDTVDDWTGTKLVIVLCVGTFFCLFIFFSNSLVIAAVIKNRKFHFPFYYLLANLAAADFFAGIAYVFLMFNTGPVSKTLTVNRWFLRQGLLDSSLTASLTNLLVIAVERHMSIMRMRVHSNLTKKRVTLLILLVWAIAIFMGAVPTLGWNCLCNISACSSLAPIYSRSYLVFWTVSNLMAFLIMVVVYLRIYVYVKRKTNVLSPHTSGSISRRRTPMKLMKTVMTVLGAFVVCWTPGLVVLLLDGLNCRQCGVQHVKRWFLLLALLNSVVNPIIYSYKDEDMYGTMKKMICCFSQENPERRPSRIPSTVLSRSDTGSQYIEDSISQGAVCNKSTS
# From the text: After treatment with gintonin, B103 cells expressing LPA3 or LPA6 receptor were examined for change in intracellular cAMP level.
# [1] = molecular target: T2, mutant W4.64A LPA3 receptor (Homo sapiens, UniProt Q9UBY5, W167A); experiment: Intracellular Ca2+ in B103 cells with mutant W4.64A LPA3 receptor; details: W4.64A LPA3 receptor-transfected B103 cells
# T2 construct: expressed in transfected cells; host or cells: B103 rat neuroblastoma cells
# T2 sequence (Q9UBY5 1-353 W167A): T1 sequence (Q9UBY5 1-353) with W167A
# From the text: That is, LPA receptors have specific amino acid residues, known as binding sites, which are responsible for interaction with LPA, and the binding of LPA to the specific amino acids starts to exert the function. This Example was configured to examine a change in the gintonin-induced intracellular calcium increase through LPA receptor activation in LPA3 receptor-expressing cells when specific amino acids of the LPA binding site in LPA receptors were mutated.
# To this end, a mutant LPA receptor in which Arg3.28, known as a common LPA binding site of LPA1-LPA3 receptors, was mutated as Arg3.28Ala (that is, Arg is substituted by Ala; R3.28A) or Trp4.64, known as an LPA-binding site of LPA3 receptor was mutated as Trp4.64Ala (that is, Tip is substituted by Ala; W4.64A) (Valentine et al., J. Biol. Chem. 283, 12175-12187, 2008) was transfected to B103 cells which were then tested for the action of gintonin, in comparison with cells transfected with the wild-type. […] From the result, it is henceforth understood that the gintonin-triggered LPA receptor activation is achieved by interaction with the LPA binding sites of LPA receptors and that gintonin occupies the LPA binding sites to activate LPA receptors.
# NMDA receptor = NMDA receptor activity in oocytes expressing active or inactive RPTP alpha; details: oocytes expressing active or inactive RPTP α
# Protocol: Two-electrode voltage-clamp recordings were obtained from individual oocytes placed in a small Plexiglas net chamber (5 ml). Electrophysiological experiments were performed using microelectrodes filled with 3 M KCl (resistance of 0.2-0.7 MΩ) and an Oocyte Clamp amplifier (OC-725C; Warner Instrument, Hamden, Conn.). For physiological recordings of NMDA receptor activity, oocytes were first perfused with Mg^2+-free ND96 (mM: 96 NaOH, 2 KOH, 0.3 CaCl2, 5 HEPES pH 7.6 with methanesulfonic acid). Then, the oocytes were clamped at −60 mV holding potential, followed by recoding NMDA currents (induced by administering […]) (Zheng et al., J Neurosci. 17, 8676-8686, 1997; Chang and Kuo, J Neurosci. 28, 1546-1556, 2008).
molecule,measurement,setting,value
B1,change in intracellular cAMP level,LPA3 receptor,no influences on intracellular cAMP level
same,gintonin-induced intracellular calcium increase vs wild-type,[1],greatly reduced
same,NMDA receptor activity when treated with gintonin,NMDA receptor,NMDA receptor activity at a low level
